Data reported in article PMC3197615.

Key:
[1] = molecular target: human Ephrin A4 on transduced WOP cells (human) (UniProt P52798)
[2] = molecular target: mouse Ephrin A4 on transduced WOP cells (mouse) (UniProt O08542)
[3] = molecular target: rat Ephrin A4 on transduced WOP cells (rat)

UniProt P52798, sequence (P52798 26-170): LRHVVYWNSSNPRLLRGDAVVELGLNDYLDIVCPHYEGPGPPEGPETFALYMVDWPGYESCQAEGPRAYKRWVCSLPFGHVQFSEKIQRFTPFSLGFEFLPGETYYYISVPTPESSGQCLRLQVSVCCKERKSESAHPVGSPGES
UniProt O08542, sequence (O08542 26-175): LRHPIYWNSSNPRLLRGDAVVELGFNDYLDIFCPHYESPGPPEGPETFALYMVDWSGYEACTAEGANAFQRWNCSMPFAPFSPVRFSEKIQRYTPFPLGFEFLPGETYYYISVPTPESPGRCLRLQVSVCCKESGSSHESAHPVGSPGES

IAPE Env (IAPE D2*) on transfected 293T cells (natural protein)
fold increase of the titre of IAPE Env pseudotypes over no-Env pseudotypes on transduced WOP cells (fold increase) [1]: 231
fold increase of the titre of IAPE Env pseudotypes over no-Env pseudotypes on transduced WOP cells (fold increase) [2]: 16
fold increase of the titre of IAPE Env pseudotypes over no-Env pseudotypes on transduced WOP cells (fold increase) [3]: 16
